From patent US20150274841A1 come the findings set out here.

Assay [1] deals with human plasma kallikrein (PKal) (human), P03952. Description: Ki,app; Fab inhibition of PKal cleavage of a substrate peptide, Morrison fit. The following applies: remark: other sources report otherwise.
For assay [2] the target is unchanged. Kind of assay: enzyme inhibition assay: rate (F/s) of substrate peptide cleavage by PKal against [Fab] (nM), fitted to the Morrison equation; apparent Ki (Ki,app); Table 3 prints 2.5 nM. The following applies: remark: other sources report otherwise.

Chain of human plasma kallikrein (PKal) (human), P03952 (P03952 20-638 limits assumed): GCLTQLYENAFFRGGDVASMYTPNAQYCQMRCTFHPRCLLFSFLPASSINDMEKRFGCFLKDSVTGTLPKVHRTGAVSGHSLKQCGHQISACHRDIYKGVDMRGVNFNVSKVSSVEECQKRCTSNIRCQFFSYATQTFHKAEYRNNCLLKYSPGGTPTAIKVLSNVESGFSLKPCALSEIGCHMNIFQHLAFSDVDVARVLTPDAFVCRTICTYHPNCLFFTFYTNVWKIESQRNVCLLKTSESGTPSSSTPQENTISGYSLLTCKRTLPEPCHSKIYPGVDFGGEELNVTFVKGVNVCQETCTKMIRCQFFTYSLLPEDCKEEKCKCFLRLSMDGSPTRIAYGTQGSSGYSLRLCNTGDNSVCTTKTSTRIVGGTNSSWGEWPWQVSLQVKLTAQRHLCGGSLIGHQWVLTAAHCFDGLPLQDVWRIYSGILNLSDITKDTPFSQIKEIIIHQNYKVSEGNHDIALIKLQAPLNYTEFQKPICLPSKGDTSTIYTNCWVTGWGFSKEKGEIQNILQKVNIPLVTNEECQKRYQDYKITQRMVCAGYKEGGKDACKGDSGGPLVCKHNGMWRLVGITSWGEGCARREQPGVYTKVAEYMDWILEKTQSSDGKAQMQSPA

B1: M0162-A04 (Fab, V domains shown)
VH: EVQLLESGGGLVQPGGSLRLSCAASGFTFSHYIMMWVRQAPGKGLEWVSGIYSSGGITVYADSVKGRFTISRDNSKNTLYLQMNSLRAEDTAVYYCAYRRTGIPRRDAFDIWGQGTMVTVSS
VL: DIQMTQSPSTLSASVGDRVTITCRASQSISSWLAWYQQKPGKAPNLLIYKASTLESGVPSRFSGSGSGTEFTLTISSLQPDDFATYYCQQYNTYWTFGQGTKVEIK
With B1, the Ki in assay [1] stood at 2.5 nM; in assay [2], 6.54 nM.
